Experimental data published in patent US20200339680A1 (Alector, published 2020).

B1: TM-8 (antibody, V domains shown)
VH: QIQLVQSGPELKKPGETVKISCKASGYTFTDYPMHWVKQAPGKGFKWMGVIYTDTGEPKYAEVFKGRFAFSLETSASTAYLQINNLKNEDTATYFCVRRLAYWGQGTLVTVSA
VL: DIKMTQSPSSMYASLGERVTITCKASQDINSYLSWFQQKPGKSPKTLIFRANRLVDGVPSRFSGSGSGQDYSLTISSLEYEDMGIYYCLQYDEFPLTFGAGTKLEMK
notes: mouse IgG (hybridoma)
B2: TM-31 (antibody, V domains shown)
VH: QVQLQQSGAELAKPGASVKVSCKASGYTFISYWMNWVKQRPGQGLEWIGYINPTSGYTRYNQKFKDKATLTADKSSSTAYMQLSSLTYEDSAVYYCARSPPTVVLIGYFDYWGQGTTLTVSS
VL: DIKMTQSPSSMYASLGERVTFTCKASQDINSYLSWFQQKPGKSPKTLIYRGNGLVDGVPSRFSGSGSGQDYSLTISSLEYEDMGIYYCLQYDEFPFTFASGTKLEIK
notes: mouse IgG (hybridoma)
B3: TM-2 (antibody, V domains shown)
VH: HIQLVQSGPELKKPGETVKISCKASGYTFTEYPMHWVKQAPGKGFRWMGMIYTNTGEPTYAAEFKGRFAFSLETSASTGYLQINNLKNEDSATYFCVTAGYWGQGTLVTVSA
VL: QIVLTQSPAILSASPGEKVTMTCRASSSVSYIHWFLQKPGSSPKPWIYATSNLASGVPFRFIGSGSGTSYSLTISGVEAEDSATYYCQQWSSNPSTFGAGTKLELK
B4: TM-3 (antibody, V domains shown)
VH: QVTLKESGPGIVQPSQTLSLTCSFSGFSLNTLGRGVGWIRQPSGKGLEWLAKIWWNDDKFYYPALKSRLTISKDTSKNQIFLKIANVDTADSATYYCARIAGGTGAAYWGQGTTLTVSS
VL: DIVMTQAAFSNPVTLGTSASISCRSSKSLLHSNGITYLYWYLQKPGQSPQLLISQMSSLASGVPDRFSSGGSGTDFTLRISRVEAEDVGVFYCAQNLELPWTFGGGTKLELK
B5: TM-9 (antibody, V domains shown)
VH: EVQLVESGGDLVKPGGSLKLSCVASGFTFSGYGMSWVRQTPDKRLEWVATISSGSFYIYYPDSVKGRLTVSRDNAKNTLYLQMSSLKSEDTAIYYCARQNFYYGCEDYWGQGTTLTVSS
VL: DIVMTQAAFSNPVTLGTSASISCRSSKSLLHSNGITYLYWYLQKPGQSPQLLIYQMSNLASGVPNRFSSSGSGTDFTLRISRVEAEDVGVYYCAQNLELPWTFGGGTKLEIK
B6: TM-6 (antibody, V domains shown)
VH: QVQLQQSGAELVKPGASVKLSCKASGYTFTEYTIHWVKQRSGQGLEWIGWFYPGSTYIDYNEKFKDKATLTADKSSSTVYLELSRLTSEDSAVYFCARHEEDYSNWFPFWGQGTLVTVSA
VL: DIQMSQSSSYLSVSLGGRVTITCKASDHINNWLAWYQQKPGNAPRLLISGATSLETGVPSRFSGSGSGKDYTLSITSLQTEDVATYYCQQYWSSPYTFGGGTKLEIK
notes: mouse IgG (hybridoma)
B7: TM-24 (antibody, V domains shown)
VH: QVQLKQSGPGQVQPSQSLSITCTVSGFSLSDYGVHWVRQSPGKGLEWLGVIWNNGNTDYNAAFISRLSINKDNSKSQVFFKMTSLQADDTAIYYCVRSLRPLHFDYWGQGTTVTVSS
VL: DIVMTQSPSSLTMSVGQKVTMNCKSSQSLLNSNNQQNYLAWYQQKPGQSPKLLVYFASIRESGVPDRFIGSGSGTDFTLTINSVQAEDLADYFCQQHYSTPFTFGSGTKLEIR
notes: mouse IgG (hybridoma)
B8: TM-5 (antibody, V domains shown)
VH: QVQLQQSGTELARPGASVKVSCKASGYIFTTYGITWVKQRGGQGLEWIGEIYPRSDNTYYNEKFKDKATLTADKSSSTAYMELRSLTSEDSAVYFCARSKGSGTGDYWGQGTTVTVSS
VL: DIQMTQSPASLSASVGETVTITCRASENIYIYLAWYQQKQGKTPQLLVYNGKMLAENVPSRFSGSGSGTQFSLKINSLQPEDFGSYYCQHHYGSPPAFGAGTKLELK
B9: TM-1 (antibody, V domains shown)
VH: QVQLQQSGAELVRPGTSVKVSCKASGYAFTNYLIEWVKQRPGQGLEWIGVINPGSGGTKYNEKLKGKATLTADKSSSTAYMQLSSLTSVDSAVYFCARRGYTIYDFYAMDYWGQGTSVTVSS
VL: DVLMTQTPLSLPVSLGDHASISCRSSQSIVYNNGNTYLEWYLQKPGQSPKLLIYKVSNRFSGVPDRFSGSGSGTDFTLKISRVEAEDLGVYYCFQVSHVPFTFGSGTKLEIK
B10: TM-32 (antibody, V domains shown)
VH: EVQLQQSGAELVRPGASVRLSCIASGFNIKDYYMYWVKQRPEQGLEWIGRIDPEDGDTEYVPKFQGKATMTADTSSNTAYLQLSSLTSEDIGVYYCTTRTWDLYYAVDNWGQGTSVTVSS
VL: DVLMTQTPLSLPVSLGDQASISCRSSQNIVHSNGNTYLEWYLQKPGQSPKLLIDKVSNRFSGVPDRFSGSGSGTDFTLKISRVEAEDLGIYYCFQGSHVPFTFGSGTKLEIK
B11: TM-30 (antibody, V domains shown)
VH: QVQLQQSGPELVKPGASVKLSCKASDNTFTNYDVNWVRQRPGQGLEWIGWIYPRDGTTIYNEKFKGRATLTVDTSSSTAYMELHSLTSEDSAVFFCARTLPQAMDYWGQGTSVTVSS
VL: DVLMTQSPLSLPVSLGDQVSISCRSSQTIVHRNGNTYLEWYLQKPGQSPKLLIYKVSNRFSGVPDRFSGSGSGTDFTLKISRVEAEDLGVYYCFQGSHLPWTFGGGTKLEIK
notes: mouse IgG (hybridoma)
B12: TM-10 (antibody, V domains shown)
VH: QVQLQQSGAELVKPGASVKISCKGSGYAFSSYWMNWVKQRPGKGLEWIGQIYPGDGDTNYNGKFKGKATLTADKSSTTAYIHLSSLTSEDSAVYFCARWGHYDEAMDDWGQGTSVTVSS
VL: DVVMTQTPLSLPVSLGDQASISCRSSQSLVHSNGKTYLHWYVQKPGQSPKLLIYKISNRFSGVPDRFSGSGSGTDFTLKISRVEAEDLGVYFCSQITHVPWTFGGGTKLESK
B13: TM-7 (antibody, V domains shown)
VH: EVQLQQSGPVLVKPGPPVKISCKASGFTFTDYYIHWVKLSHGKSLEWIGLVYPYNGDTDYNQKFKGKATLTVDTSSSTAYMELNSLTSEDSAVYYCARTYYANSPDYWGQGTTVTVSS
VL: DIVMTQSPSSLSVSAGEKVTMSCKSSQSLLNSGNQRNYLAWYQQKPGQPPKLLIYGASTRESGVPDRFTGSGSGTDFTLTISNVQAEDLAVYYCQNDHSYPLTFGAGTKLELK
B14: TM-39 (antibody, V domains shown)
VH: HVQRQQSGTELAKPGASVKLSCKTSGYTFTDYWMHWIKQRPGQGLEWIGFINPSSGYTKYNQNFKDKATLTADKSSSTAYMQLSSLTYEDSAVFYCAREAGSISDWYFDVWGTGTTVTVSS
VL: DIVMTQAAPSIPVTPGESVSISCRSSKTLLNSNGNTYLYWFLQRPGQPPQLLIYRMSNLASGVPDRFSGSGSGTAFTLRISRVEAEDVGVYYCMQHLDYPYTFGGGTQLEIK

Experiments:
human TMEM106B [1] = target: T1, human TMEM106B (human, UniProt Q9NUM4 2-274); assay: FACS A549;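 further: flow cytometry of cells incubated on ice for 1 h with hybridoma supernatant or purified antibody at 10 µg/mL, dead propidium iodide-positive cells gated out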
T1 construct: full-length, transiently expressed on HEK293 cells, or natively expressed on HeLa, U251 and A549 cells (the cell is named under assay); also the source of the Pepscan peptides; also called huTMEM106B; huTMEM

human TMEM106B [2] = target: T1, human TMEM106B; assay: FACS A549 1 ug/ml
Experimental: (§1) Purified anti-TMEM106B antibodies were evaluated for their binding affinity to various TMEM106B-expressing cell lines including HEK293 transiently transfected with human/cyno/mouse TMEM106B, as well as HeLa cells and A549 cells. Antibodies tested for this experiment were mouse IgGs purified from hybridoma supernatant. Affinity binding to cells was determined as follows. Briefly, 1×10\hat{ }5 cells were aliquoted per well in 96-well round bottom plates and incubated with 50 μL of purified anti-TMEM106B antibody at various concentrations (10× dilutions starting at 10 μg/ml) in FACS buffer (PBS+2% FBS+1 mM EDTA). […] Sorting was performed on a iQue (Intellicyt), with sort gates drawn to exclude dead (propidium iodide+) cells. Binding data was analyzed using median fluorescent intensity (MFI) and graphed in Prism. Values presented are MFI.

human TMEM106B [3] = target: T1, human TMEM106B; assay: FACS HEK+huTMEM 0.1 ug/ml;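 further: flow cytometry binding of purified mouse IgG antibodies to HEK293 cells transiently expressing TMEM106B, read as median fluorescence intensity on live cells (propidium iodide negative gating)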
Experimental: as §1

human TMEM106B [4] = target: T1, human TMEM106B; assay: FACS HEK+huTMEM 10 ug/ml;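 further: flow cytometric binding of purified mouse IgG antibodies to HEK293 cells transiently expressing human TMEM106B, read as median fluorescence intensity on live cells with propidium iodide-positive cells excluded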
human TMEM106B [5] = target: T1, human TMEM106B; assay: FACS HEK+huTMEM 1.0 ug/ml;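 further: binding of purified mouse IgG antibodies to HEK293 cells transiently expressing human TMEM106B, read by flow cytometry as median fluorescence intensity of live, propidium iodide-negative cells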
mouse TMEM106B = target: T2, mouse TMEM106B (mouse, UniProt Q80X71 2-275); assay: FACS Neuro2a;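 further: flow cytometry of antibody binding to cells: hybridoma supernatant or purified antibody at 10 µg/ml, 1 h on ice, secondary detection, propidium iodide–positive dead cells gated out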
T2 construct: transiently expressed on HEK293 cells, or native on mouse Neuro2a cells; also called moTMEM106B; murine TMEM106B

human TMEM106B [6] = target: T1, human TMEM106B; assay: FACS U251
human TMEM106B [7] = target: T1, human TMEM106B; assay: FACS HeLa
Experimental: All cells were cultured in either T75 or T150 flasks. […] The enzyme was quenched by addition of fresh media, and the cells were then distributed into 96-well plates for FACS analysis.
FACS analysis was performed as follows. Each cell type was aliquoted in 96-well round bottom plates (2×10^5 cells per well), washed once with FACS buffer (PBS+2% FBS+1 mM EDTA), and incubated with 50 μL of hybridoma supernatant or purified antibody (10 μg/ml in FACS buffer) on ice for 1 hour. […] Following this secondary incubation, the cells were again washed 2× with ice-cold FACS buffer and resuspended in a final volume of 50 μL of FACS buffer+0.25 μl/well propidium iodide (Fisher Scientific #4BDB556463). Analysis was performed on a FACSCanto system (BD Biosciences) or iQue (Intellicyt), with sort gates drawn to exclude dead (i.e., propidium iodide positive) cells.

human TMEM106B [8] = target: T1, human TMEM106B; assay: FACS HEK+huTMEM 0.1 ug/ml (2nd column so headed);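 further: flow cytometry binding of purified anti-TMEM106B mouse IgG to HEK293 cells transiently transfected with TMEM106B, read as median fluorescence intensity on live (propidium iodide-negative) cells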
human TMEM106B [9] = target: T1, human TMEM106B; assay: FACS A549 10 ug/ml
Experimental: as §1

| Binder | MFI (human TMEM106B [1]) | MFI (human TMEM106B [2]) | MFI (human TMEM106B [3]) | MFI (human TMEM106B [4]) | MFI (human TMEM106B [5]) | MFI (mouse TMEM106B) | MFI (human TMEM106B [6]) | MFI (human TMEM106B [7]) | MFI (human TMEM106B [8]) | MFI (human TMEM106B [9]) |
| --- | --- | --- | --- | --- | --- | --- | --- | --- | --- | --- |
| B1 | 554 MFI | 393 MFI | 305 MFI | 465 MFI | 317 MFI | 370 MFI | 304 MFI | 568 MFI | 301 MFI | 492 MFI |
| B2 |  | 403 MFI | 1390 MFI | 6060 MFI | 3680 MFI | 325 MFI | 352 MFI | 799 MFI | 596 MFI | 527 MFI |
| B3 | 1890 MFI | 1090 MFI | 4730 MFI | 55500 MFI | 29300 MFI | 2900 MFI | 1410 MFI | 2530 MFI | 1440 MFI | 3360 MFI |
| B4 | 1800 MFI | 4840 MFI | 48700 MFI | 82300 MFI | 89100 MFI | 1980 MFI | 1080 MFI | 2690 MFI | 7700 MFI | 7670 MFI |
| B5 | 1990 MFI | 4880 MFI | 28300 MFI | 56400 MFI | 62100 MFI | 2710 MFI | 1540 MFI | 2540 MFI | 3940 MFI | 7090 MFI |
| B6 | 1100 MFI | 418 MFI | 327 MFI | 581 MFI | 393 MFI | 371 MFI | 304 MFI | 520 MFI | 294 MFI | 544 MFI |
| B7 |  | 2880 MFI | 22000 MFI | 66300 MFI | 64500 MFI |  |  |  | 3620 MFI | 4480 MFI |
| B8 | 1170 MFI | 1970 MFI | 10800 MFI | 59300 MFI | 64500 MFI | 1610 MFI | 866 MFI | 1740 MFI | 2180 MFI | 4800 MFI |
| B9 | 1460 MFI | 364 MFI | 1330 MFI | 2380 MFI | 2010 MFI | 253 MFI | 244 MFI | 253 MFI | 655 MFI | 409 MFI |
| B10 |  | 3930 MFI | 20300 MFI | 61100 MFI | 63300 MFI |  |  |  | 4100 MFI | 6100 MFI |
| B11 |  | 3030 MFI | 18400 MFI | 61500 MFI | 63500 MFI |  |  |  | 3070 MFI | 4040 MFI |
| B12 | 823 MFI | 663 MFI | 21000 MFI | 36500 MFI | 44400 MFI | 604 MFI | 328 MFI | 596 MFI | 3360 MFI | 1090 MFI |
| B13 | 647 MFI | 883 MFI | 9870 MFI | 40800 MFI | 40000 MFI | 1200 MFI | 442 MFI | 1070 MFI | 1670 MFI | 1810 MFI |
| B14 |  | 3610 MFI | 19200 MFI | 51900 MFI | 55600 MFI |  |  |  | 3850 MFI | 5330 MFI |
